Experimental findings from patent publication US20040138134A1 are described below.

Sequences and labels used below:
B1: CNP 5-22 (17-mer, cyclic domain of CNP) (peptide)
chain: CFGLKLDRIGSMSGLGC
modifications: not fully specified (bridges); ends and bridges not checked
B2: CNP variant SEQ ID NO:9 (peptide)
chain: CFGLKLDRAGSMSGLGC
B3: CNP variant SEQ ID NO:8 (peptide)
chain: CFGLKLDAIGSMSGLGC
B4: CNP variant SEQ ID NO:11 (peptide)
chain: CHFGLKLDRIGSMSC
B5: CNP variant SEQ ID NO:12 (peptide)
chain: CHFGLKLDRIGSMAC
B6: CNP variant SEQ ID NO:7 (peptide)
chain: CFGLKLARIGSMSGLGC

Where no end group is shown, it is not given here.

One assay concerns the target natriuretic peptide receptor on C3H10T1/2 cells. The assay is described as follows: cell-based or functional assay.
Consider B1, for which the % relative binding (cGMP, Biotrak EIA, peptide at 10^-6 M) came to 100%.

The next assay shares this target. The assay is described as follows: cell-based or functional assay. This is another data set of the same source.
B2 yielded a % relative binding (cGMP, Biotrak EIA, peptide at 10^-6 M) of 11.5%.

B3 displayed a % relative binding (cGMP, Biotrak EIA, peptide at 10^-6 M) of 18.4%.

B1: the % relative binding (cGMP, Biotrak EIA, peptide at 10^-6 M) was determined as 127%.

B4: the % relative binding (cGMP, Biotrak EIA, peptide at 10^-6 M) was found to be 25.9%.

As for B5, the % relative binding (cGMP, Biotrak EIA, peptide at 10^-6 M) was 21.7%.

B6: the % relative binding (cGMP, Biotrak EIA, peptide at 10^-6 M) came out at 49.1%.
